Patent US20240270866A1 (Alector, published 2024)

Columns and labels:
[1] = target: T1, mouse SIRPA overexpressed on CHO cells (mouse, UniProt P97797 32-513); test: flow, CHO-muSIRPA;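 for relative MFI: antibody binding measured by flow cytometry: cells stained with 1 ug/ml test antibody for 1 h on ice, detected with PE-labelled secondary antibody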
T1 construct: also called CHO-muSIRPA
T1 sequence: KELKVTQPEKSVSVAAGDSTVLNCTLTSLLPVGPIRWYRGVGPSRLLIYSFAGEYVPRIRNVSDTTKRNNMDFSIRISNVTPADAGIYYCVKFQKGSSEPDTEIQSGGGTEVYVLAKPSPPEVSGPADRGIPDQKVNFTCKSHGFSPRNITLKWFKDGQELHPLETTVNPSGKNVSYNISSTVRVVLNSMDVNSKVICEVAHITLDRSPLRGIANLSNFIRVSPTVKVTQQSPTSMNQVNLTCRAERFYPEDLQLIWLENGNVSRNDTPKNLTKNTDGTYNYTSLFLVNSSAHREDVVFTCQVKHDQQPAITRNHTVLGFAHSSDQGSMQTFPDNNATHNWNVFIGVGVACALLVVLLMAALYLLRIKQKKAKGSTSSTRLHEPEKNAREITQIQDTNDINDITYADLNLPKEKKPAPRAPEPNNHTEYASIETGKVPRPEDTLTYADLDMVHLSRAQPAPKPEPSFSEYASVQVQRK

[2] = target: T1, mouse SIRPA overexpressed on CHO cells; test: flow, CHO-muSIRPA; remark: listed apart in the source;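 for relative MFI: antibody binding measured by flow cytometry: cells stained with 1 ug/ml test antibody for 1 h on ice, detected with PE-labelled secondary antibody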
[3] = target: T2, human SIRPA overexpressed on CHO cells (human, UniProt P78324 31-504); test: flow, CHO-huSIRPA;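 note: Anti-SIRPA antibodies applied at 1 µg/mL for 1 h on ice, binding read by flow cytometry using a PE-labelled secondary antibody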
T2 construct: also called CHO-huSIRPA

Human SIRPb D1 Fc = Human SIRPb D1 Fc (human, UniProt O00241 30-148, limits assumed); test: ForteBio IgG avid;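 note: antibody IgG captured on AHQ biosensors, then 100 nM Fc-fused SIRP antigen applied for 3 min, followed by 3 min buffer dissociation, kinetics fitted to a 1:1 model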
Human SIRPb D1 Fc, sequence (O00241 30-148 limits assumed): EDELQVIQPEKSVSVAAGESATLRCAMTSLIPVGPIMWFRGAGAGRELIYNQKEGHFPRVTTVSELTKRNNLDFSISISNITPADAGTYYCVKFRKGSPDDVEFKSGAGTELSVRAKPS

Human SIRPA D1 Fc = target: T3, Human SIRPA D1 Fc (human, UniProt P78324 32-137); test: ForteBio IgG avid;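 note: antibody IgG captured on AHQ biosensors, then 100 nM Fc-fused SIRP antigen applied for 3 min, followed by 3 min buffer dissociation, kinetics fitted to a 1:1 model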
T3 construct: not shown: human IgG1 Fc

Mouse SIRPA D1 Fc = target: T4, Mouse SIRPA D1 Fc (mouse, UniProt P97797 32-150, limits assumed); test: ForteBio IgG avid;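 note: antibody IgG captured on AHQ biosensors, then 100 nM Fc-fused SIRP antigen applied for 3 min, followed by 3 min buffer dissociation, kinetics fitted to a 1:1 model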
T4 sequence: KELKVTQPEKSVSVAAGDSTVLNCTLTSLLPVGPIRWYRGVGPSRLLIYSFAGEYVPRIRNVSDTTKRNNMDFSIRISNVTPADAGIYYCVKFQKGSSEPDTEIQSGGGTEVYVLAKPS

[4] = target: T5, human SIRPA Fc fusion antigen (human, UniProt P78324 31-373); test: ForteBio Fab monovalent
T5 construct: heterologous signal peptide; not shown: human IgG1 Fc

[5] = target: T5, human SIRPA Fc fusion antigen; test: ForteBio IgG avid;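 note: ForteBio sensor-based avid binding of anti-SIRPA antibodies in IgG format, with the binding partner in solution at 100 nM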
Description: The affinities of the anti-SIRPA antibodies were determined by measuring KD values by ForteBio and MSD. […] Briefly, ForteBio affinity measurements were performed by loading immunoglobulins (IgGs) on-line onto AHQ sensors. Sensors were equilibrated off-line in assay buffer for 30 min and then monitored on-line for 60 seconds for baseline establishment. For avid binding measurement, sensors with loaded IgGs were exposed to 100 nM antigen (human SIRPA or SIRPβ1 Fc fusion) for 3 min, afterwards they were transferred to assay buffer for 3 min for off-rate measurement. Additional avid binding was determined by loading biotinylated SIRPA monomer on SA sensors and exposure to 100 nM IgG in solution. Monovalent binding measurements were obtained by loading human SIRPA Fc fusion antigens to AHQ sensor and followed by exposure to 100 nM anti-SIRPA antibody Fab.

[6] = target: T6, human SIRPβ1 Fc fusion antigen (human, UniProt O00241 30-371); test: ForteBio IgG avid;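 note: ForteBio sensor-based avid binding of anti-SIRPA antibodies in IgG format, with the binding partner in solution at 100 nM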
T6 construct: not shown: human IgG1 Fc
T6 sequence (O00241 30-371 limits assumed): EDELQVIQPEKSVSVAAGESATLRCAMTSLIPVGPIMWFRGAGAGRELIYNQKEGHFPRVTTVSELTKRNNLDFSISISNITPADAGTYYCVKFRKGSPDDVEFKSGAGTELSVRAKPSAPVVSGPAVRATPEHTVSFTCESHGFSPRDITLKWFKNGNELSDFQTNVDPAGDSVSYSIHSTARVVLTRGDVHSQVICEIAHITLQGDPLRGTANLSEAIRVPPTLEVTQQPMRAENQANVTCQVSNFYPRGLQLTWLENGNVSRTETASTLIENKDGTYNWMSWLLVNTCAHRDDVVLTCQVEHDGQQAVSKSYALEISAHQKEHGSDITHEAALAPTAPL

B1: SA-12 (antibody, V domains shown)
VH: QVQLVQSGAEVKKPGASVKVSCKASGYTFTSYYIHWVRQAPGQGLEWMGIINPSGGSTSYAQKFQGRVTMTRDTSTSTVYMELSSLRSEDTAVYYCARAPGSWFYWGQGTLVTVSS
VL: EIVLTQSPATLSLSPGERATLSCRASQSVSSYLAWYQQKPGQAPRLLIYDASNRATGIPARFSGSGSGTDFTLTISSLEPEDFAVYYCQQRTNFPITFGGGTKVEIK
notes: IgG
relative MFI [1]: 0.548 fold over background | binding result [2]: no binding (tested: 1 ug/ml) | relative MFI [3]: 52 fold over background | binding result (Human SIRPb D1 Fc): no binding (tested: 100 nM) | Kd (Human SIRPA D1 Fc): 13 nM | binding result (Mouse SIRPA D1 Fc): no binding (tested: 100 nM)

B2: SA-23 (antibody, V domains shown)
VH: QVQLVQSGAEVKKPGASVKVSCKASGYTFTSYGISWVRQAPGQGLEWMGWISTYNGNTNYAQKLQGRVTMTTDTSTSTAYMELRSLRSDDTAVYYCARDQGTGTTVDLDLWGRGTLVTVSS
VL: not shown
notes: IgG
relative MFI [1]: 0.533 fold over background | relative MFI [3]: 21.1 fold over background | Kd (Human SIRPA D1 Fc): 38 nM

B3: SA-19 (antibody, V domains shown)
VH: QVQLVESGGGVVQPGRSLRLSCAASGFTFSSYGMHWVRQAPGKGLEWVAVISYDGSNKYYADSVKGRFTISRDNSKNTLYLQMNSLRAEDTAVYYCARDLTKYTLGFAFDIWGQGTMVTVSS
VL: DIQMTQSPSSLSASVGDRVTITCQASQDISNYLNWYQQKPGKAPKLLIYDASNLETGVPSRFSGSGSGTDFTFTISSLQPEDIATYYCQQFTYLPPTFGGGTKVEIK
notes: IgG; also called SA-19 (parental)
relative MFI [1]: 0.601 fold over background | binding result [2]: no binding (tested: 1 ug/ml) | binding result (Human SIRPA D1 Fc): binds | binding result (Mouse SIRPA D1 Fc): no binding (tested: 100 nM)

B4: SA-13-68 Fab (Fab, V domains shown)
VH: EVQLLESGGGLVQPGGSLRLSCAASGFTFTEYAMSWVRQAPGKRLEWVSAISGSGGSTYYADSVKGRFTISRDNSKNTLYLQMSSLRAEDTAVYYCARDNIQWGPHFYWGQGTLVTVSS
VL: DIQMTQSPSSLSASVGDRVTITCRASQSISSYLNWYQQKPGKAPKLLIYAASSLQSGVPSRFSGSGSGTDFTLTISSLQPEDFATYYCQQGYIYPPTFGGGTKVEIK
notes: papain Fab
Kd [4]: 81.5 nM

B5: SA-56-94 (antibody, V domains shown)
VH: EVQLVESGGGVVQPGRSLRLSCAASGFTFSYYGMSWVRQAPGKGLEWVASIWVDGSNKYYADSVKGRFTISRDNSKNTLYLQMNSLRAEDTAVYYCAVGTETYSGPNWFDPWGQGTLVTVSS
VL: DIQMTQSPSSVSASVGDRVTITCRASQGISSWLAWYQQKPGKAPKLLIYAASSLQSGVPSRFSGSGSGTDFTLTISSLQPEDFATYYCQQAIYFPITFGGGTKVEIK
notes: IgG; also called SA-94
Kd [5]: 0.566 nM | binding result [6]: no binding (tested: 100 nM)

B6: SA-56-91 (antibody, V domains shown)
VH: EVQLVESGGGVVQPGRSLRLSCAASGFTFAHYGMAWVRQAPGKGLEWVASIWVDGSNKYYADSVKGRFTISRDNSKNTLYLQMNSLRAEDTAVYYCATAVETYSGPNWFDPWGQGTLVTVSS
VL: DIQMTQSPSSVSASVGDRVTITCRASQGISSWLAWYQQKPGKAPKLLIYAASSLQSGVPSRFSGSGSGTDFTLTISSLQPEDFATYYCQQAIYFPITFGGGTKVEIK
notes: IgG
Kd [5]: 0.412 nM | binding result [6]: no binding (tested: 100 nM)

B7: SA-56-92 (antibody, V domains shown)
VH: EVQLVESGGGVVQPGRSLRLSCAASGFTFSYYGMSWVRQAPGKGLEWVASIWVDGSNKYYADSVKGRFTISRDNSKNTLYLQMDSLRAEDTAVYYCATGVETYSGPNWFDPWGQGTLVTVSS
VL: DIQMTQSPSSVSASVGDRVTITCRASQGISSWLAWYQQKPGKAPKLLIYAASSLQSGVPSRFSGSGSGTDFTLTISSLQPEDFATYYCQQAIYFPITFGGGTKVEIK
notes: IgG
Kd [5]: 0.365 nM | binding result [6]: no binding (tested: 100 nM)

B8: SA-56-90 (antibody, V domains shown)
VH: QVQLVESGGGVVQPGRSLRLSCAASGSTFSHYGMSWVRQAPGKGLEWVASIWVDGSNKYYADSVKGRFTISRDNSKNTLYLQMDSLRAEDTAVYYCARGVETYSGPNWFDPWGQGTLVTVSS
VL: DIQMTQSPSSVSASVGDRVTITCRASQGISSWLAWYQQKPGKAPKLLIYAASSLQSGVPSRFSGSGSGTDFTLTISSLQPEDFATYYCQQAIYFPITFGGGTKVEIK
notes: IgG; also called SA-90
Kd [5]: 0.378 nM | binding result [6]: no binding (tested: 100 nM)

B9: SA-56-95 (antibody, V domains shown)
VH: EVQLLESGGGVVQPGRSLRLSCAASGFTFAHYGMAWVRQAPGKGLEWVAVIWVDGSPKYYADSVKGRFTISRDNSKNTLYLQMNSLRAEDTAVYYCAVARETYSGPNWFDPWGQGTLVTVSS
VL: DIQMTQSPSSVSASVGDRVTITCRASQGISSWLAWYQQKPGKAPKLLIYAASSLQSGVPSRFSGSGSGTDFTLTISSLQPEDFATYYCQQAIYFPITFGGGTKVEIK
notes: IgG
Kd [5]: 1.06 nM | binding result [6]: no binding (tested: 100 nM)

B10: SA-56-96 (antibody, V domains shown)
VH: EVQLLESGGGVVQPGRSLRLSCAASGFTFSSYAMGWVRQAPGKGLEWVAVIWVDGSLKYYADSVKGRFTISRDNSKNTLYLQMNSLRAEDTAVYYCATGRETYSGPNWFDPWGQGTLVTVSS
VL: DIQMTQSPSSVSASVGDRVTITCRASQGISSWLAWYQQKPGKAPKLLIYAASSLQSGVPSRFSGSGSGTDFTLTISSLQPEDFATYYCQQAIYFPITFGGGTKVEIK
notes: IgG
Kd [5]: 1.04 nM | binding result [6]: no binding (tested: 100 nM)

B11: SA-56-93 (antibody, V domains shown)
VH: EVQLLESGGGVVQPGRSLRLSCAASGFTFSYYGMSWVRQAPGKGLEWVASIWVDGSNKYYADSVKGRFTISRDNSKNALYLQMNSLRAEDTAVYYCAVSRETYSGPNWFDPWGQGTLVTVSS
VL: DIQMTQSPSSVSASVGDRVTITCRASQGISSWLAWYQQKPGKAPKLLIYAASSLQSGVPSRFSGSGSGTDFTLTISSLQPEDFATYYCQQAIYFPITFGGGTKVEIK
notes: IgG
Kd [5]: 0.862 nM | binding result [6]: no binding (tested: 100 nM)

B12: SA-8-64 Fab (Fab, V domains shown)
VH: QVQLVESGGGLVKPGGSLRLSCAASGFTFSSYSMHWVRQAPGKGLEWVSSISSSDSWIYYADSVKGRFTISRDNAKNSLYLQMNSLRAEDTAVYYCAKEPRSYWHGYGMDVWGQGTTVTVSS
VL: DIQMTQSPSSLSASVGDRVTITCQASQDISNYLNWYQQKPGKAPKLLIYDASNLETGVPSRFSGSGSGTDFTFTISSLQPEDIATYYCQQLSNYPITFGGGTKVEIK
notes: papain Fab
Kd [4]: 27.7 nM

B13: SA-8-67 Fab (Fab, V domains shown)
VH: EVQLVESGGGLVKPGGSLRLSCAASGFTFSSYSMHWVRQAPGKGLEWVSSISSSPSHIYYADSVKGRFTISRDNAKNSLYLQMNSLRAEDTAVYYCAKEPRSYWHGYGMDVWGQGTTVTVSS
VL: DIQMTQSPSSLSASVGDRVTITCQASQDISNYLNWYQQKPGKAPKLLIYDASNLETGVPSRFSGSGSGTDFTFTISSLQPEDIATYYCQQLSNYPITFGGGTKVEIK
notes: papain Fab
Kd [4]: 131 nM

B14: SA-8-62 Fab (Fab, V domains shown)
VH: QVQLVESGGGLVKPGGSLRLSCAASGFTFSSYSMHWVRQAPGKGLEWVSSISSSDSWIYYADSVKGRFTISRDNAKNSLYLQMDSLRAEDTAVYYCAKERVDYWHGYGMDVWGQGTTVTVSS
VL: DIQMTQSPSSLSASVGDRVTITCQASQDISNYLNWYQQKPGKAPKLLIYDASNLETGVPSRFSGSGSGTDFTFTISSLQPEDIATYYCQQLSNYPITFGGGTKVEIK
notes: papain Fab
Kd [4]: 8.92 nM

B15: SA-14 (antibody, V domains shown)
VH: EVQLVESGGGLVKPGGSLRLSCAASGFTFSSYSMNWVRQAPGKGLEWVSSISSSSSYIYYADSVKGRFTISRDNAKNSLYLQMNSLRAEDTAVYYCARDGSMYYGDPMDVWGQGTTVTVSS
VL: DIQLTQSPSSLSASVGDRVTITCQASQDISNFLNWYQQKPGKAPKLLIYDASNLETGVPSRFSGSGSGTDFTFTISSLQPEDIAKYYCQQFINFPLTFGGGTKVEIK
notes: IgG
relative MFI [1]: 0.732 fold over background | binding result [2]: no binding (tested: 1 ug/ml) | relative MFI [3]: 24.4 fold over background | binding result (Human SIRPb D1 Fc): no binding (tested: 100 nM) | Kd (Human SIRPA D1 Fc): 31 nM | binding result (Mouse SIRPA D1 Fc): no binding (tested: 100 nM)
